The supplement of paper PMC9112550, “Optimization of the antimicrobial peptide Bac7 by deep mutational scanning” (BMC Biology, 2022)

Test system: Escherichia coli TOP10
Test: shrunken log2 fold change of peptide-encoding DNA abundance (4.5 h post-induction vs induction); higher = less antimicrobial activity (less host growth inhibition)
Settings: time post-induction: 4.5 h; library: site-saturation at positions 5, 18, 19, 20
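Further: peptides expressed intracellularly from a pBAD plasmid library in pooled LB shake-flask culture, induced with 0.3% L-arabinose, DNA abundance read by NGS, three biological replicates, DESeq2 with apeglm shrinkage.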

Sequence	shrunken log2 fold change
RRIRHRPPRLPRPRPRPESGPRP	-0.0115
RRIRHRPPRLPRPRPRPESRPRP	-0.17
RRIRHRPPRLPRPRPRPFAYPRP	-0.0167
RRIRHRPPRLPRPRPRPFCVPRP	-0.312
RRIRHRPPRLPRPRPRPFDFPRP	-1.21
RRIRHRPPRLPRPRPRPFDVPRP	-0.168
RRIRHRPPRLPRPRPRPFFDPRP	-0.642
RRIRHRPPRLPRPRPRPFFFPRP	0.123
RRIRHRPPRLPRPRPRPFGGPRP	-0.0398
RRIRHRPPRLPRPRPRPFGQPRP	-0.162
RRIRHRPPRLPRPRPRPFGRPRP	-0.0135
RRIRHRPPRLPRPRPRPFHDPRP	-0.152
RRIRHRPPRLPRPRPRPFLDPRP	-0.751
RRIRHRPPRLPRPRPRPFMEPRP	-1
RRIRHRPPRLPRPRPRPFNGPRP	-0.118
RRIRHRPPRLPRPRPRPFPNPRP	-0.0913
RRIRHRPPRLPRPRPRPFQTPRP	-0.183
RRIRHRPPRLPRPRPRPFRLPRP	-0.322
RRIRHRPPRLPRPRPRPFSCPRP	-0.0244
RRIRHRPPRLPRPRPRPFSIPRP	-0.392
RRIRHRPPRLPRPRPRPFTWPRP	-0.408
RRIRHRPPRLPRPRPRPFVGPRP	-0.31
RRIRHRPPRLPRPRPRPFVRPRP	-0.073
RRIRHRPPRLPRPRPRPFWNPRP	0.034
RRIRHRPPRLPRPRPRPFWWPRP	0.0369

Sequence	shrunken log2 fold change
RRIRHRPPRLPRPRPRPFYTPRP	-1.02
RRIRHRPPRLPRPRPRPGAKPRP	0.219
RRIRHRPPRLPRPRPRPGCQPRP	0.0291
RRIRHRPPRLPRPRPRPGCTPRP	-0.514
RRIRHRPPRLPRPRPRPGDVPRP	-0.16
RRIRHRPPRLPRPRPRPGEAPRP	0.051
RRIRHRPPRLPRPRPRPGGRPRP	0.0167
RRIRHRPPRLPRPRPRPGGYPRP	-0.258
RRIRHRPPRLPRPRPRPGHTPRP	0.105
RRIRHRPPRLPRPRPRPGIHPRP	-0.2
RRIRHRPPRLPRPRPRPGIVPRP	-0.286
RRIRHRPPRLPRPRPRPGKPPRP	-0.00366
RRIRHRPPRLPRPRPRPGKQPRP	-0.173
RRIRHRPPRLPRPRPRPGKVPRP	-0.0067
RRIRHRPPRLPRPRPRPGLCPRP	0.101
RRIRHRPPRLPRPRPRPGLNPRP	-0.0123
RRIRHRPPRLPRPRPRPGMKPRP	-0.113
RRIRHRPPRLPRPRPRPGMQPRP	0.0824
RRIRHRPPRLPRPRPRPGMSPRP	-0.0653
RRIRHRPPRLPRPRPRPGPKPRP	-0.0906
RRIRHRPPRLPRPRPRPGPMPRP	0.247
RRIRHRPPRLPRPRPRPGPNPRP	0.813
RRIRHRPPRLPRPRPRPGQKPRP	0.00748
RRIRHRPPRLPRPRPRPGRCPRP	0.127
RRIRHRPPRLPRPRPRPGREPRP	0.0529

Sequence	shrunken log2 fold change
RRIRHRPPRLPRPRPRPGRMPRP	-0.313
RRIRHRPPRLPRPRPRPGTRPRP	-0.13
RRIRHRPPRLPRPRPRPGVCPRP	-0.263
RRIRHRPPRLPRPRPRPGYCPRP	-0.507
RRIRHRPPRLPRPRPRPGYKPRP	-0.00663
RRIRHRPPRLPRPRPRPHCTPRP	-0.0731
RRIRHRPPRLPRPRPRPHDSPRP	-0.03
RRIRHRPPRLPRPRPRPHEFPRP	0.0248
RRIRHRPPRLPRPRPRPHGWPRP	0.0177
RRIRHRPPRLPRPRPRPHHLPRP	-0.0119
RRIRHRPPRLPRPRPRPHIHPRP	-0.328
RRIRHRPPRLPRPRPRPHKDPRP	-0.384
RRIRHRPPRLPRPRPRPHKFPRP	-0.636
RRIRHRPPRLPRPRPRPHKQPRP	-0.225
RRIRHRPPRLPRPRPRPHLCPRP	-0.0468
RRIRHRPPRLPRPRPRPHMAPRP	-0.0236
RRIRHRPPRLPRPRPRPHNKPRP	-0.866
RRIRHRPPRLPRPRPRPHNWPRP	-0.214
RRIRHRPPRLPRPRPRPHQLPRP	-0.196
RRIRHRPPRLPRPRPRPHQQPRP	0.0121
RRIRHRPPRLPRPRPRPHQYPRP	-0.52
RRIRHRPPRLPRPRPRPHRCPRP	0.0171
RRIRHRPPRLPRPRPRPHRRPRP	0.0762
RRIRHRPPRLPRPRPRPHRTPRP	-0.179
RRIRHRPPRLPRPRPRPHSAPRP	0.0327

Sequence	shrunken log2 fold change
RRIRHRPPRLPRPRPRPHSVPRP	-0.0237
RRIRHRPPRLPRPRPRPHSYPRP	-0.191
RRIRHRPPRLPRPRPRPHTQPRP	0.0972
RRIRHRPPRLPRPRPRPHVAPRP	-0.208
RRIRHRPPRLPRPRPRPHYAPRP	-0.992
RRIRHRPPRLPRPRPRPHYNPRP	-1.11
RRIRHRPPRLPRPRPRPHYVPRP	-0.057
RRIRHRPPRLPRPRPRPIALPRP	-0.355
RRIRHRPPRLPRPRPRPICWPRP	0.0429
RRIRHRPPRLPRPRPRPICYPRP	-0.178
RRIRHRPPRLPRPRPRPIDRPRP	-0.263
RRIRHRPPRLPRPRPRPIEHPRP	-0.394
RRIRHRPPRLPRPRPRPIFMPRP	-0.0784
RRIRHRPPRLPRPRPRPIGAPRP	0.173
RRIRHRPPRLPRPRPRPIHWPRP	-0.0298
RRIRHRPPRLPRPRPRPIIDPRP	-0.0219
RRIRHRPPRLPRPRPRPIISPRP	-0.247
RRIRHRPPRLPRPRPRPIKRPRP	-0.0154
RRIRHRPPRLPRPRPRPILWPRP	-0.0569
RRIRHRPPRLPRPRPRPIMLPRP	-0.389
RRIRHRPPRLPRPRPRPINSPRP	-0.404
RRIRHRPPRLPRPRPRPIQKPRP	-0.00174
RRIRHRPPRLPRPRPRPIQRPRP	-0.204
RRIRHRPPRLPRPRPRPIRPPRP	-0.125
RRIRHRPPRLPRPRPRPIRQPRP	0.0104

Sequence	shrunken log2 fold change
RRIRHRPPRLPRPRPRPISIPRP	0.0201
RRIRHRPPRLPRPRPRPIVTPRP	-0.388
RRIRHRPPRLPRPRPRPIWRPRP	0.139
RRIRHRPPRLPRPRPRPIWTPRP	-0.311
RRIRHRPPRLPRPRPRPIWVPRP	0.0163
RRIRHRPPRLPRPRPRPIYHPRP	-0.0782
RRIRHRPPRLPRPRPRPKALPRP	0.0359
RRIRHRPPRLPRPRPRPKDGPRP	0.326
RRIRHRPPRLPRPRPRPKGFPRP	0.0595
RRIRHRPPRLPRPRPRPKGMPRP	-0.448
RRIRHRPPRLPRPRPRPKHCPRP	-0.447
RRIRHRPPRLPRPRPRPKKYPRP	-0.806
RRIRHRPPRLPRPRPRPKLYPRP	0.0366
RRIRHRPPRLPRPRPRPKMCPRP	-0.00195
RRIRHRPPRLPRPRPRPKMIPRP	-0.254
RRIRHRPPRLPRPRPRPKMSPRP	0.166
RRIRHRPPRLPRPRPRPKNCPRP	0.00397
RRIRHRPPRLPRPRPRPKNYPRP	-0.766
RRIRHRPPRLPRPRPRPKPLPRP	0.127
RRIRHRPPRLPRPRPRPKQRPRP	0.41
RRIRHRPPRLPRPRPRPKQTPRP	0.179
RRIRHRPPRLPRPRPRPKSDPRP	-0.255
RRIRHRPPRLPRPRPRPKTYPRP	-1.51
RRIRHRPPRLPRPRPRPKVMPRP	0.0163
RRIRHRPPRLPRPRPRPKWGPRP	0.177

Sequence	shrunken log2 fold change
RRIRHRPPRLPRPRPRPKYTPRP	0.973
RRIRHRPPRLPRPRPRPLADPRP	0.26
RRIRHRPPRLPRPRPRPLDEPRP	-0.0217
RRIRHRPPRLPRPRPRPLDIPRP	-0.105
RRIRHRPPRLPRPRPRPLDPPRP	-0.331
RRIRHRPPRLPRPRPRPLDTPRP	0.0608
RRIRHRPPRLPRPRPRPLFNPRP	-0.58
RRIRHRPPRLPRPRPRPLFVPRP	-0.471
RRIRHRPPRLPRPRPRPLFYPRP	-0.702
RRIRHRPPRLPRPRPRPLHAPRP	0.297
RRIRHRPPRLPRPRPRPLHDPRP	-0.277
RRIRHRPPRLPRPRPRPLIDPRP	-0.408
RRIRHRPPRLPRPRPRPLINPRP	-0.201
RRIRHRPPRLPRPRPRPLKFPRP	-0.298
RRIRHRPPRLPRPRPRPLKGPRP	0.0721
RRIRHRPPRLPRPRPRPLLFPRP	-0.364
RRIRHRPPRLPRPRPRPLMCPRP	0.0994
RRIRHRPPRLPRPRPRPLNTPRP	-0.351
RRIRHRPPRLPRPRPRPLPAPRP	0.192
RRIRHRPPRLPRPRPRPLPFPRP	-0.73
RRIRHRPPRLPRPRPRPLQCPRP	-0.0439
RRIRHRPPRLPRPRPRPLQPPRP	0.157
RRIRHRPPRLPRPRPRPLSKPRP	-0.746
RRIRHRPPRLPRPRPRPLTNPRP	0.185
RRIRHRPPRLPRPRPRPLVMPRP	-0.0133
